From paper doi:10.1101/2020.01.19.911149 (bioRxiv, 2020)

B1: SmF-GFP (natural protein, S. cerevisiae, UniProt P54999 1-86, looked up)
chain: MSESSDISAMQPVNPKPFLKGLVNHRVGVKLKFNSTEYRGTLVSTDNYFNLQLNEAEEFVAGVSHGTLGEIFIRCNNVLYIRELPN
B2: BsHfq-GFP (natural protein, Bacillus subtilis, UniProt O31796 1-73, looked up)
chain: MKPINIQDQFLNQIRKENTYVTVFLLNGFQLRGQVKGFDNFTVLLESEGKQQLIYKHAISTFAPQKNVQLELE

Biological target: the molecule itself
Assay: SEC-MALS

Row | Protein | stoichiometry N
1 | B1 | 14
2 | B2 | 6
